Measured values: US11103459B2, “Method of drug formulation based on increasing the affinity of active agents for crystalline microparticle surfaces” (MannKind Corporation, priority 2005, dated 2021)
Like-named read-outs stand apart in the source and are kept apart here. Where no end group is shown, it is not given here.

Assays:
[1] = Active agent/FDKP microparticle adsorption studies (loading curves, HPLC); type: physicochemical; settings: for binding of GLP-1 onto the FDKP microparticle surface: 100 mM TMAO
Protocol: Aqueous samples at varying pH and at 20° C. (unless otherwise noted) were analyzed.
The association of active agent with diketopiperazine (DKP) particles in suspension was evaluated by conducting adsorption studies.
(§1) Unbound active agent in the supernatant was filtered off the suspension. […] The amount of active agent in both the supernatant and reconstituted fractions was quantitated by HPLC. A series of experiments were conducted in which conditions employed included use of additives such as salts, osmolytes, chaotropes and kosmotropes, and alcohols.
The concentration of the chaotrope or kosmotrope in the samples was held constant at 100 mM and the pH varied from 2.0 to 5.0. Chaotropes or kosmotropes were selected from the following: NaSCN, CsCl, Na2SO4, (CH3)3N—HCl, […], Na Citrate, and NaClO4. The control indicates no chaotrope or kosmotrope were added.
The concentration of the osmolyte (stabilizer) in the samples was held constant at 100 mM and the pH varied from about 2.0 to about 5.0. The osmolytes were selected from hexylene-glycol (Hex-Gly), trehalose, glycine, PEG, TMAO, mannitol and proline; the control indicates no osmolyte.
In assessing the effect of modifiers on the active agent that allows for adsorption to the microparticle surface by a hydrophobic mechanism, the effect of alcohols were examined. […] The effect of each alcohol was observed over a pH range of 2.0 to 5.0. The alcohols used were trifluoroethanol (TFE) and hexafluoroisopropanol (HFIP). Each alcohol was evaluated at varying concentrations which include 5%, 10%, 15%, or 20% v/v.
(§2) The amount of active agent detected in reconstituted microparticle-free control samples as a function of pH and NaCl concentration was assessed. The pH was controlled with a 20 mM potassium phosphate/20 mM potassium acetate mixture.

[2] = Active agent detected in reconstituted microparticle-free control samples (precipitation, HPLC); type: physicochemical
Protocol: as §1
Similar observations were disclosed in U.S. Provisional Application Ser. No. 60/744,882.
The effect of TFE was less pronounced, and at the lower pHs tested was detrimental. […] The mass ratios in FIGS. 3C-D reflect both adsorbed and precipitated active agent although precipitation is an increasingly minor component as the pH decreased toward 3.0.
as §2

[3] = in the presence of NaSCN, NaClO4, Na2SO4, NaNO3 and Na citrate; cited from earlier work

Substance: ghrelin (GSSFLSPEHQRVQQRKESKKPPAKLQPR; ends and bridges not checked; UniProt Q9UBU3 24-51, looked up)
- affinity of ghrelin for the microparticle surface vs control ([1]; 100 mM mannitol, PEG, glycine, Hex-Gly, trehalose, pH about 4.0 to 5.0): greater affinity
- affinity of ghrelin for the microparticle surface (mass ratio of ghrelin to FDKP particles) ([1]; HFIP and TFE at 5%, 10%, 15%, 20% v/v, pH 2.0-4.0): greatly improved affinity

Substance: glucagon-like peptide 1 [GLP-1]
- affinity for adsorption of GLP-1 onto FDKP particle surface ([1]; 100 mM PEG and proline, pH 2.0 to 4.0): improved the affinity
- binding of GLP-1 onto the FDKP microparticle surface ([1]; pH 2.0): more effective than PEG or proline
- binding of GLP-1 onto the FDKP microparticle surface ([1]; pH 3.0 and above): modestly detrimental
- affinity of GLP-1 for the FDKP microparticles ([1]; 100 mM chaotropes and kosmotropes, pH 2.0-4.0, greater effect at lower pH): improved affinity
- affinity of GLP-1 for the microparticle surface ([1]; HFIP and TFE at 5% and 10%, pH 2.0-5.0): improved affinity
- binding of GLP-1 to FDKP particles ([1]; NaCl, pH 4.0 and above): reduction in binding
- effect of TFE on GLP-1 affinity for the microparticle surface ([1]; TFE, lower pHs tested): detrimental
- binding (adsorption) of GLP-1 to FDKP particles ([1]; all NaCl concentrations tested, pH about 2.0 to about 3.5): enhanced binding
- GLP-1 peptide detected in reconstituted microparticle-free control samples ([2]; 10% HFIP and TFE, pH 4.0): 0.13 to 0.19 mg/mL
- GLP-1 peptide detected in reconstituted microparticle-free control samples ([2]; 10% HFIP or TFE, pH 2.0): no GLP-1 was detected
- GLP-1 peptide detected in reconstituted microparticle-free control samples [3]: 0.02 to 0.04 mg/mL

Substance: insulin [reference compound]
- affinity of insulin for the FDKP microparticle surface vs control ([1]; 100 mM chaotropes and kosmotropes, pH 3.0, […] insulin, 5 mg/mL FDKP): improved the affinity
- affinity of insulin for the FDKP microparticle surface vs control ([1]; 100 mM chaotropes and kosmotropes, pH 4): this effect was not observed
- adsorption of insulin to the FDKP microparticle surface vs control ([1]; 100 mM chaotropes and kosmotropes, pH 5.0 (insulin precipitated)): interfered with the adsorption
- affinity of insulin for the FDKP particle surface ([1]; 100 mM osmolytes (PEG, glycine, trehalose, mannitol, Hex-Gly), pH 3.0 to 5.0): significantly improved affinity
- binding (adsorption) of insulin onto FDKP particles ([1]; 100-500 mM NaCl, pH about 2.5 to about 3.5): increased binding
- adsorption of insulin to the FDKP particle ([1]; all NaCl concentrations tested, pH about 4.0 to about 5.0): reduction in the adsorption

Substance: parathyroid hormone [PTH]
- binding of PTH to the FDKP particles ([1]; 250 to 1000 mM NaCl, pH about 2.0 to about 3.5): enhanced binding
- binding of PTH to the microparticle ([1]; in the presence of salt, pH about 3.5 to about 5.0): decreased
- affinity of PTH for the FDKP microparticle surface ([1]; strong chaotropes NaSCN and NaClO4, pH 4.0 to about 4.5): greater
